Experimental data reported in patent US20050089932A1, “Novel proteins with targeted binding” (Avidia Research Institute, priority 2001, published 2005).

Assays:
[1] = commercial drugs; cited from earlier work
[2] = biological target: T1, recombinant human FcERI protein (human, UniProt P12319 26-205, limits assumed); assay: Biacore, human IgE on CM5 chip
T1 construct: also called recombinant soluble IgE receptor; IgE receptor R1
T1 sequence (looked up): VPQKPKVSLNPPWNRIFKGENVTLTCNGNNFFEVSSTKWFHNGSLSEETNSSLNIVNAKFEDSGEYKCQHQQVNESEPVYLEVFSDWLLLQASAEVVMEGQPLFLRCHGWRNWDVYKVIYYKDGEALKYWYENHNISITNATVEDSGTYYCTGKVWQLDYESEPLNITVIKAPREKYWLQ
Excerpt: (§1) Human IgE was immobilized to a CM5 chip (BiaCore) using standard NHS/EDC methods. Sample proteins were dialyzed into HBS buffer overnight, and the dialysis buffer was used as a running buffer for the experiment. Sample proteins were run successively over IgE or ethanolamine coated flow cells, and the data analyzed using the BiaEvaluation software package.

human IgE = human IgE (Homo sapiens, UniProt P01854); assay: Biacore affinity measurements on immobilized human IgE; assay type: binding; settings: IgE on CM5 chip
Excerpt: as §1

human PBMC = assay: PBMC assay on human cells; assay type: cell-based
Experimental: (§2) Efficacy assays were performed using human and monkey PBMC as described above. CD28 results in PBMC assays:
(§3) In order to assay the ex-vivo efficacy of monomers, they were tested on isolated peripheral blood lymphocytes (PBMC). […]. Monomer protein was added in varying concentrations to each culture and incubation occurred for 3 days at 37° C. in a CO2 containing atmosphere. During the last 9 hours, cultures were pulsed with 1 uCi per well of ^3H thymidine (ICN, Costa Mesa, Calif.) and the incorporation of radioactivity was measured on a Wallac Trilux Microbeta scintillation counter (Perkin Elmer, Boston, Mass.). See, FIG. 23.

monkey PBMC = assay: PBMC assay on monkey cells; assay type: cell-based, cynomolgus monkeys
Experimental: as §2, §3

In the case of Enbrel, the “Human T1/2” value [1] is given as 103 h.

In the case of Remicade: TNFa Antibody, the “Human T1/2” value [1] is given as 216 h.

For Rituxan: CD20 Antibody, the “Human T1/2” value [1] is listed as 78 h.

B1: human IgE (antibody)
chain: ASTQSPSVFPLTRCCKNIPSNATSVTLGCLATGYFPEPVMVTWDTGSLNGTTMTLPATTLTLSGHYATISLLTVSGAWAKQMFTCRVAHTPSSTDWVDNKTFSVCSRDFTPPTVKILQSSCDGGGHFPPTIQLLCLVSGYTPGTINITWLEDGQVMDVDLSTASTTQEGELASTQSELTLSQKHWLSDRTYTCQVTYQGHTFEDSTKKCADSNPRGVSAYLSRPSPFDLFIRKSPTITCLVVDLAPSKGTVNLTWSRASGKPVNHSTRKEEKQRNGTLTVTSTLPVGTRDWIEGETYQCRVTHPHLPRALMRSTTKTSGPRAAPEVYAFATPEWPGSRDKRTLACLIQNFMPEDISVQWLHNEVQLPDARHSTTQPRKTKGSGFFVFSRLEVTRAEWEQKDEFICRAVHEAASPSQTVQRAVSVNPGK
notes: Immobilized on plates or on a CM5 chip; variable regions and light chain not described
Molecule B1 has a Kd [2] of 0.45 µM.

B2: FcERI: recombinant human FcERI protein, the IgE receptor (protein)
chain: VPQKPKVSLNPPWNRIFKGENVTLTCNGNNFFEVSSTKWFHNGSLSEETNSSLNIVNAKFEDSGEYKCQHQQVNESEPVYLEVFSDWLLLQASAEVVMEGQPLFLRCHGWRNWDVYKVIYYKDGEALKYWYENHNISITNATVEDSGTYYCTGKVWQLDYESEPLNITVIKAPREKYWLQ
In the case of B2, the ka (human IgE) is reported as 8.4 × 10^3 and the kd (human IgE) is reported as 3.8 × 10^−3.

B3: CD28 10: CD28 trimer, sequence >CD28-A10 (protein)
chain: CGPGRFQCESGQCVPATWVCDGDDDCADGSDEKSCATTAPTCESNQFQCGSGQCLPGTWRCDGVNDCADSSDETGCGRPGPGATSAPAACGPGRFQCNNGNCVPQTLGCDGDNDCGDSSDEANCSAPASEPPGSL
For B3, the inhibition (human PBMC) was “inhibition = 81%” and the inhibition (monkey PBMC) was “inhibition = 81%”.
